Experimental findings from patent US20180155451A1 (published 2018) are described below.

In test [1] the target is T1, FcγRIIa R (extracellular domain, C-terminal His tag) (human, UniProt P12318 34-217).
T1 construct: extracellular domain; also called FcgRIIa R type; 2aR; not shown: His tag attached to the C terminus
T1 sequence (looked up): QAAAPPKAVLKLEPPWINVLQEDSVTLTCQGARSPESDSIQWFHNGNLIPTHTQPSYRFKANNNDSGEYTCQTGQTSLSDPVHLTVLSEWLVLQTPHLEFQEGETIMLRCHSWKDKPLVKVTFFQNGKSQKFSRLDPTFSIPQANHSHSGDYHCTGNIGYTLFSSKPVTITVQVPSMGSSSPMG
Briefly: ratio of He/Con_2aR to He/Con_2b (FcγRIIb); SPR relative binding. On the procedure: (§1) The heterodimerized antibodies He Abs in which one of the H chains was introduced with an alteration were assayed for their binding activities to each activating FcγR and inhibitory FcγR according to the method described in Example 4. […] The activating FcγRs in FIGS. 26, 27, 28, and 29 are FcγRIa, FcγRIIa (R), FcγRIIa (H), and FcγRIIIa, respectively.
(§2) Analysis of interaction between objective antibody and the FcγR was carried out using Biacore T100 (GE Healthcare). HBS-EP+ (GE Healthcare) was used as the running buffer, and the measurement temperature was set to 25° C. Chips produced by immobilizing the antigen peptide by the amine coupling method to a Series S Sencor Chip CM5 (GE Healthcare), or alternatively, chips produced by allowing preliminarily biotinylated antigen peptides to interact with and immobilize onto a Series S Sensor Chip SA (certified) (GE Healthcare) were used. Antibodies of interest were captured onto an antigen peptide-immobilized chip, and allowed to interact to each FcγR diluted with running buffer. To regenerate and repeatedly use the chip, the antibodies captured on the chip were washed off by reacting 10 mM glycine-HCl, pH 1.5.

The target in test [2] is T1, FcγRIIa R (extracellular domain, …). The experiment in a line: SPR (Biacore), antibody captured on antigen-peptide chip, FcγR as analyte; relative binding amount. On the procedure: as §1, §2
The target in test [3] is T2, FcγRIIb (extracellular domain, C-terminal His tag) (human, UniProt P31994 43-217).
T2 construct: extracellular domain; also called FcgRIIb; 2b; not shown: His tag attached to the C terminus
T2 sequence (looked up): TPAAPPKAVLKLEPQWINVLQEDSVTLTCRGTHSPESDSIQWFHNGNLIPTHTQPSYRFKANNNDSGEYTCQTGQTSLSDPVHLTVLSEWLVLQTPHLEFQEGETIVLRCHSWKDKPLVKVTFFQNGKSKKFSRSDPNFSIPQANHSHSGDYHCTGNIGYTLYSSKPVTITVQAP
The test is described as above. The protocol: as §1, §2

B1: GpH7-A5/GpH7-B3 variant D265_01G/GpL16-k0 (antibody, human IgG1, kappa)
heavy 1: not shown
heavy 2: not shown
light: DIVMTQSPLSLPVTPGEPASISCQASESLVHSNRNTYLHWYLQKPGQSPQLLIYKVSNRFSGVPDRFSGSGSGTDFTLKISRVEAEDVGVYYCSQNTHVPPTFGQGTKVEIERTVAAPSVFIFPPSDEQLKSGTASVVCLLNNFYPREAKVQWKVDNALQSGNSQESVTEQDSKDSTYSLSSTLTLSKADYEKHKVYACEVTHQGLSSPVTKSFNRGEC
notes: Heterodimerized anti-glypican-3 IgG1; alteration in only one H chain (GpH7-B3 side); also called He Ab
For B1, the “He_2aR/2b (IIaR/IIb)” value in test [1] was found to be 1.49. Also, the He/Con_2aR in test [2] is 24.1 % of control (GpH7-A5/GpH7-B3/GpL16-k0 = 100). In addition, in test [3], the He/Con_2b was 16.1 % of control (GpH7-A5/GpH7-B3/GpL16-k0 = 100).

B2: GpH7-A5/GpH7-B3 variant D265_06M/GpL16-k0 (antibody, human IgG1, kappa)
heavy 1: not shown
heavy 2: not shown
light: DIVMTQSPLSLPVTPGEPASISCQASESLVHSNRNTYLHWYLQKPGQSPQLLIYKVSNRFSGVPDRFSGSGSGTDFTLKISRVEAEDVGVYYCSQNTHVPPTFGQGTKVEIERTVAAPSVFIFPPSDEQLKSGTASVVCLLNNFYPREAKVQWKVDNALQSGNSQESVTEQDSKDSTYSLSSTLTLSKADYEKHKVYACEVTHQGLSSPVTKSFNRGEC
notes: as for B1
On to B2, for which, in test [1], the “He_2aR/2b (IIaR/IIb)” value was determined as 1.58. Also, the He/Con_2aR in test [2] is 15.8 % of control (GpH7-A5/GpH7-B3/GpL16-k0 = 100). Besides, the He/Con_2b in test [3] is 10 % of control (GpH7-A5/GpH7-B3/GpL16-k0 = 100).

B3: GpH7-A5/GpH7-B3 variant D265_04F/GpL16-k0 (antibody, human IgG1, kappa)
heavy 1: not shown
heavy 2: not shown
light: DIVMTQSPLSLPVTPGEPASISCQASESLVHSNRNTYLHWYLQKPGQSPQLLIYKVSNRFSGVPDRFSGSGSGTDFTLKISRVEAEDVGVYYCSQNTHVPPTFGQGTKVEIERTVAAPSVFIFPPSDEQLKSGTASVVCLLNNFYPREAKVQWKVDNALQSGNSQESVTEQDSKDSTYSLSSTLTLSKADYEKHKVYACEVTHQGLSSPVTKSFNRGEC
notes: as for B1
B3: the “He_2aR/2b (IIaR/IIb)” value in test [1] is 1.79. The He/Con_2aR in test [2] was 5.6 % of control (GpH7-A5/GpH7-B3/GpL16-k0 = 100). In addition, the He/Con_2b in test [3] was 3.2 % of control (GpH7-A5/GpH7-B3/GpL16-k0 = 100).

B4: GpH7-A5/GpH7-B3 variant P238_11K/GpL16-k0 (antibody, human IgG1, kappa)
heavy 1: not shown
heavy 2: not shown
light: DIVMTQSPLSLPVTPGEPASISCQASESLVHSNRNTYLHWYLQKPGQSPQLLIYKVSNRFSGVPDRFSGSGSGTDFTLKISRVEAEDVGVYYCSQNTHVPPTFGQGTKVEIERTVAAPSVFIFPPSDEQLKSGTASVVCLLNNFYPREAKVQWKVDNALQSGNSQESVTEQDSKDSTYSLSSTLTLSKADYEKHKVYACEVTHQGLSSPVTKSFNRGEC
notes: as for B1
B4: the “He_2aR/2b (IIaR/IIb)” value in test [1] is 2.03. In test [2], the He/Con_2aR was 36.9 % of control (GpH7-A5/GpH7-B3/GpL16-k0 = 100). In addition, the He/Con_2b in test [3] is 18.1 % of control (GpH7-A5/GpH7-B3/GpL16-k0 = 100).

B5: GpH7-A5/GpH7-B3 variant S239_11K/GpL16-k0 (antibody, human IgG1, kappa)
heavy 1: not shown
heavy 2: not shown
light: DIVMTQSPLSLPVTPGEPASISCQASESLVHSNRNTYLHWYLQKPGQSPQLLIYKVSNRFSGVPDRFSGSGSGTDFTLKISRVEAEDVGVYYCSQNTHVPPTFGQGTKVEIERTVAAPSVFIFPPSDEQLKSGTASVVCLLNNFYPREAKVQWKVDNALQSGNSQESVTEQDSKDSTYSLSSTLTLSKADYEKHKVYACEVTHQGLSSPVTKSFNRGEC
notes: as for B1
Take B5: in test [1], the “He_2aR/2b (IIaR/IIb)” value amounted to 1.96. Besides, the He/Con_2aR in test [2] was 48.5 % of control (GpH7-A5/GpH7-B3/GpL16-k0 = 100). Besides, the He/Con_2b in test [3] is 24.7 % of control (GpH7-A5/GpH7-B3/GpL16-k0 = 100).

B6: GpH7-A5/GpH7-B3 variant P238_14T/GpL16-k0 (antibody, human IgG1, kappa)
heavy 1: not shown
heavy 2: not shown
light: DIVMTQSPLSLPVTPGEPASISCQASESLVHSNRNTYLHWYLQKPGQSPQLLIYKVSNRFSGVPDRFSGSGSGTDFTLKISRVEAEDVGVYYCSQNTHVPPTFGQGTKVEIERTVAAPSVFIFPPSDEQLKSGTASVVCLLNNFYPREAKVQWKVDNALQSGNSQESVTEQDSKDSTYSLSSTLTLSKADYEKHKVYACEVTHQGLSSPVTKSFNRGEC
notes: as for B1
Regarding B6, in test [1], the “He_2aR/2b (IIaR/IIb)” value worked out at 1.44. Moreover, in test [2], the He/Con_2aR is 73.1 % of control (GpH7-A5/GpH7-B3/GpL16-k0 = 100). Further, the He/Con_2b in test [3] was 50.7 % of control (GpH7-A5/GpH7-B3/GpL16-k0 = 100).

B7: GpH7-A5/GpH7-B3 variant S239_12R/GpL16-k0 (antibody, human IgG1, kappa)
heavy 1: not shown
heavy 2: not shown
light: DIVMTQSPLSLPVTPGEPASISCQASESLVHSNRNTYLHWYLQKPGQSPQLLIYKVSNRFSGVPDRFSGSGSGTDFTLKISRVEAEDVGVYYCSQNTHVPPTFGQGTKVEIERTVAAPSVFIFPPSDEQLKSGTASVVCLLNNFYPREAKVQWKVDNALQSGNSQESVTEQDSKDSTYSLSSTLTLSKADYEKHKVYACEVTHQGLSSPVTKSFNRGEC
notes: as for B1
In the case of B7, the “He_2aR/2b (IIaR/IIb)” value in test [1] stood at 1.38. Further, the He/Con_2aR in test [2] was 53.9 % of control (GpH7-A5/GpH7-B3/GpL16-k0 = 100). Further, in test [3], the He/Con_2b was 39.1 % of control (GpH7-A5/GpH7-B3/GpL16-k0 = 100).
